Source: patent publication US20170145104A1 (Bristol-Myers Squibb, published 2017)
Positions count from the first letter of the chain named. Numbers in names are those of the source. Blank lines part the entries; values can stand above or below the binder they belong to.

How the values were obtained:
[1] = target: T1, human GITR, membrane bound (on activated human T cells and on 3A9-hGITR cells) (human, UniProt Q9Y5U5 26-241); experiment: FACS, activated human T cells (anti-CD3/anti-CD28), PE anti-human IgG
T1 construct: whole, on cells; the cell is named under assay; also called huGITR; TNFRSF18
T1 sequence (looked up): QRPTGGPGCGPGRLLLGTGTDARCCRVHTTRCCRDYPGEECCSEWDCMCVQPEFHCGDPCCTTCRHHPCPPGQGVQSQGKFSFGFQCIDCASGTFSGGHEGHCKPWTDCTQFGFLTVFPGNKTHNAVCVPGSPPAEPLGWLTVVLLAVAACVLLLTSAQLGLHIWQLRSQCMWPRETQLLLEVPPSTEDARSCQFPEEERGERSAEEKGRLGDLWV
Experimental: (§1) Peripheral Blood Mononuclear Cells (PBMCs) isolated from human or cynomolgus monkey were activated with plate-coated anti-CD3 antibody (Clone: UCHT1 for human T cell activation; Clone: SP34 for cynomolgus T cell activation; both from BD Biosciences) and soluble anti-CD28 antibody (Clone:CD28.2 for both human and cynomolgus monkey, BD Biosciences) for 4 days (human)/or 5 days (cynomolgus monkey). The cells were tested for GITR mAb binding in a fluorescence-activated cell sorting (FACS)-based assay using a phycoerythrin (PE)-conjugated anti-human IgG antibody (Jackson ImmunoResearch). The samples were analyzed on a BD FACS Canto Flow Cytometer.

[2] = target: T1, human GITR, membrane bound (on …); experiment: FACS blocking assay on GITR-3A9 cells: antibody titrated first, then GITR-L, bound GITR-L read as GMFI (PE). The table prints no unit, so ug/mL is taken from the axis 'Conc (ug/mL)'.
[3] = target: T1, human GITR, membrane bound (on …); experiment: FACS blocking assay on GITR-3A9 cells with GITR-L, plotted as % inhibition. The table prints no unit, so ug/mL is taken from the axis 'Conc (ug/mL)'.
[4] = target: T2, cynomolgus GITR on activated cynomolgus T cells (cynomolgus, UniProt Q9Y5U5 26-241 (human entry)); experiment: FACS on activated cynomolgus T cells, PE anti-human IgG. The EC50 table prints no unit, so nM is taken from the axis 'Concentration (nM)'. The 3C3 curve itself is flat, see non_binding.
T2 construct: also called cyno GITR
T2 chain: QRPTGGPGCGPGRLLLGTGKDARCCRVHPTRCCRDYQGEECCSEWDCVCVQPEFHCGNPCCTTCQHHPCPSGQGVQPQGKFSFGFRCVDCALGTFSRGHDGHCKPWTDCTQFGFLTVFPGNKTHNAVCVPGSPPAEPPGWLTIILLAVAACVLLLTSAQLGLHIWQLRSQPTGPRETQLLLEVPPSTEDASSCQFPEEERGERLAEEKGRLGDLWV
Experimental: as §1

[5] = target: T2, cynomolgus GITR on activated cynomolgus …; experiment: FACS, activated cynomolgus T cells (anti-CD3/anti-CD28), PE anti-human IgG
Experimental: as §1

[6] = target: T1, human GITR, membrane bound (on …); experiment: FACS binding to 3A9-hGITR transfectant, Geo-MFI (PE); EC50 table beside the curves; unit from the axis; the lowest curve (small diamonds) reaches only about 40 Geo-MFI at the top concentration
[7] = target: T1, human GITR, membrane bound (on …); experiment: FACS binding to 3A9-hGITR transfectant, Geo-MFI (PE); EC50 table beside the curves; unit from the axis
mouse GITR = target: T3, mouse GITR (mouse, UniProt O35714 20-228); experiment: stated in the Treg suppression assay with wildtype and huGITR knock-in mouse T cells
T3 construct: whole, on cells; also called muGITR
T3 sequence (looked up): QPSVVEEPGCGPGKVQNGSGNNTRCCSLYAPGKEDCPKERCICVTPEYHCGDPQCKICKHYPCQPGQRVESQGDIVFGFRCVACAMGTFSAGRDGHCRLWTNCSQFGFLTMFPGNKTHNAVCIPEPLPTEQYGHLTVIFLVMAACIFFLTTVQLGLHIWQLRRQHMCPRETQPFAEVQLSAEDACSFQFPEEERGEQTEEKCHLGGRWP

[8] = target: T4, non-glycosylated N-terminal human GITR peptide consisting of SEQ ID NO: 215 (human); experiment: capture on 28F3 coated beads, LC-MS
T4 construct: Made by proteolysis of native GITR-mouse Fc and also by organic synthesis; also called N-terminal peptide without O-linked glycosylation
T4 peptide: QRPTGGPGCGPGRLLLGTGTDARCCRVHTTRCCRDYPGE
Experimental: The experiment was conducted as follows: Human GITR peptide fragments were generated by incubation of human GITR with Endoproteinase Arg-C, Endoproteinase Lys-C, Trypsin, Endoproteinase Glu-C or Endoproteinase Asp-N at a 2% w/w ratio at 37° C. in PBS for five hours without the presence of denaturing reagents. The peptide mixture was then incubated with anti-GITR Ab beads in PBS at room temperature for two hours. Some samples were subjected to in situ secondary cleavage by incubation with a different enzyme in PBS for an hour. Unbound peptides were removed by washing the anti-GITR Ab beads twice with PBS.

B1: 3C3 (antibody, human IgG1, kappa, V domains shown)
VH: QVQLQQWGAGLLKPSETLSLTCAVYGGSFSGYYWTWIRQPPGKGLEWIGKINHSGNTNYNPSLKSRVTISVDTSKNQFSLKLSSVTAADTAVYYCARLGAFDAFDIWGQGTMVTVSS
VL: DIQMTQSPSSLSASVGDRVTITCRASQGISSWLAWYQQKPEKAPKSLIYAASSLQSGVPSRFSGSGSGTDFTLTISSLQPEDFATYYCQQYNSYPYTFGQGTKLEIKR
notes: Hybridoma-derived human antibody; also called GITR.3; 3C3-1
- EC50 [1]: 49.2 pM
- EC50 [2]: 0.0693 µg/mL
- EC50 [3]: 0.0693 µg/mL
- EC50 [4]: 0.142 µM

B2: 19D3 (antibody, human IgG2, kappa, V domains shown)
VH: QVQLVESGGGVVQPGRSLRLSCAASGFTFSSYGFHWVRQAPGKGLEWVAVIWYAGSNKFYADSVKGRFTISRDNSKNTLYLQMNSLRAEDTAVYYCARGGQLDYYYYYVMDVWGQGTTVTVSS
VL: B1 VL
notes: Hybridoma-derived human antibody; also called 19D3-IgG2
- EC50 [1]: 363 pM
- EC50 [2]: 0.755 µg/mL
- EC50 [3]: 0.755 µg/mL

B3: 18E10 (antibody, human IgG2, kappa, V domains shown)
VH: B2 VH with F34M, F59Y, Q101R, L102I, D103A, Y104V, Y105A, Y106F, V109S
VL: B1 VL
notes: Hybridoma-derived human antibody; also called 18E10-IgG2
- EC50 [1]: 146 pM
- EC50 [5]: 0.000913 µM

Next, values leading:

- EC50 [6]: ~38600 µM
B4: 28F3 VH CDR3 mutant M98S, D106E, M111F (antibody, V domains shown)
VH: QVQLVESGGGVVQPGRSLRLSCAASGFTFSSYGMHWVRQAPGKGLEWVAVIWYEGSNKYYADSVKGRFTISRDNSKNTLYLQMNSLRAEDTAVYYCARGGSSVRGEYYYGFDVWGQGTTVTVSS
VL: AIQLTQSPSSLSASVGDRVTITCRASQGISSALAWYQQKPGKAPKLLIYDASSLESGVPSRFSGSGSGTDFTLTISSLQPEDFATYYCQQFNSYPYTFGQGTKLEIK
notes: also called E4

- EC50 [7]: 0.045 µM
B5: 28F3 VH CDR3 mutant M98Y, D106E, M111F (antibody, V domains shown)
VH: B4 VH with S102Y
VL: B4 VL
notes: also called G4

- EC50 [1]: 192 pM
- EC50 [2]: 0.278 µg/mL
- binding result (mouse GITR): no binding
- binding result [8]: binds
- EC50 [3]: 0.278 µg/mL
- EC50 [5]: 0.00104 µM
B6: 28F3 (antibody, human IgG2, kappa)
heavy: QVQLVESGGGVVQPGRSLRLSCAASGFTFSSYGMHWVRQAPGKGLEWVAVIWYEGSNKYYADSVKGRFTISRDNSKNTLYLQMNSLRAEDTAVYYCARGGSMVRGDYYYGMDVWGQGTTVTVSSASTKGPSVFPLAPCSRSTSESTAALGCLVKDYFPEPVTVSWNSGALTSGVHTFPAVLQSSGLYSLSSVVTVPSSNFGTQTYTCNVDHKPSNTKVDKTVERKCCVECPPCPAPPVAGPSVFLFPPKPKDTLMISRTPEVTCVVVDVSHEDPEVQFNWYVDGVEVHNAKTKPREEQFNSTFRVVSVLTVVHQDWLNGKEYKCKVSNKGLPAPIEKTISKTKGQPREPQVYTLPPSREEMTKNQVSLTCLVKGFYPSDIAVEWESNGQPENNYKTTPPMLDSDGSFFLYSKLTVDKSRWQQGNVFSCSVMHEALHNHYTQKSLSLSPGK
light: not shown
notes: Hybridoma-derived human antibody, IgG2 constant region; also called 13H2; 28F3 (IgG2)
